The values that follow come from patent US20100129344A1, “MEDICAL USES AND THERAPIES BASED UPON THE ACTION OF AZUROCIDIN ON IGFBP-1” (priority 2005, published 2010).

Data set [1] has as its target T1, IGFBP-1 (Homo sapiens, UniProt P08833).
T1 construct: purchased Kabi Pharmacia (Sweden), donated
T1 sequence (P08833 26-259): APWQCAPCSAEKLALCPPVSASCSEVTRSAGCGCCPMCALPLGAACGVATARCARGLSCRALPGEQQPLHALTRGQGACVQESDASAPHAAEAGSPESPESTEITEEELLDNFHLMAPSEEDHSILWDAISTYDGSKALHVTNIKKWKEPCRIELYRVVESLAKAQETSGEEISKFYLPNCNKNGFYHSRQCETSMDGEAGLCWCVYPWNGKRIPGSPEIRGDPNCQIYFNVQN
The data set can be described thus: Azurocidin-dependent IGFBP-1 protease activity (SDS-PAGE, ECL or silver staining). The data set is classed as biochemical. To be noted: for effect on IGFBP-1 (proteolysis): commercial recombinant protein from mouse myeloma cells. The protocol: Recombinant phosphorylated IGFBP-1 was used as substrate and incubations were carried out under neutral conditions for 2 h at 37 C. IGFBP-1 fragments were separated on SDS-PAGE, and detected by ECL as described in the methods. Panel A: Incubations with 0.25 μL eluate (HE) from heparin affinity chromatography (50 μl urine equiv.) in the presence and absence of anti-azurocidin antibody; and 1 μl HE of the loading material (L), and the flow through after affinity chromatography on protein G columns without (G) and with bound anti-chymase (C) or anti-azurocidin (A) antibodies. Panel B: Incubations in the presence and absence of 25 ng anti-azurocidin antibody with increasing volumes of white cell extract from the individual with a specific IGFBP-1 protease in urine compared to the white cell extract pooled from 6 healthy subjects;
Recombinant IGFBP-1 was incubated with the eluate from heparin affinity chromatography (HE) with a ratio of azurocidin:BP-1 of 1:3,500. After the times indicated, proteins were detected by silver staining after SDS-PAGE;
Gels were fixed, dried and analysed with the Fuji PhosphoImage program (Fuji Co., Stockholm, Sweden). Biotinylated IGFBP-1 and its fragments were separated on 14% SDS-PAGE under reducing conditions, transferred to PVDF (Biorad, Sundbyberg, Sweden), incubated with neutravidin-horseradish peroxidase (Pierce Biotechnology Inc, Rochester, Ill.) and detected by ECL (Amersham Biosciences, Uppsala, Sweden). Silver staining of proteins and fragments was performed after denaturing 12% PAGE under reducing conditions (SilverQuest and NuPAGE, Invitrogen, Stockholm, Sweden).
Heparin affinity chromatography was carried out in batches using heparin-agarose gel (Pharmacia). Urine was diluted 1:5 in 10 mM sodium phosphate, with 0.25 M NaCl buffer, pH 7 and incubated with gel for 30 min at 4 C. The gel was transferred to a column and washed with 10 times the gel volume of buffer. Heparin binding proteins were eluted in loading buffer containing 2M NaCl and the eluate was desalted, concentrated using a 10 kDa spin column and stored at −80 C. Concentrated material derived from 700 ml urine were applied to C4 reverse-phase HPLC, in 0.1% TFA on an acetonitrile gradient of 0-100%. Immunoaffinity chromatography was performed using monoclonal anti-azurocidin antibody attached to protein G Sepharose (Sigma-Aldrich, Sweden). In brief, antibody bound gel was incubated with the eluate from heparin affinity chromatography for 2 h at 22 C, and transferred to a Bio-Spin chromatography column (BioRad). The flow-through was collected for analysis of protease activity. As controls, an additional column was prepared with a monoclonal antibody against human mast cell chymase and a second column with no bound antibody.

Data set [2] deals with T1, IGFBP-1. The data set can be described thus: Sequence analysis of IGFBP-1 fragments after azurocidin-dependent proteolysis. The data set is classed as biochemical. Here is the method: A: Recombinant npIGFBP-1 was incubated without (−) and with (+) 0.25 μl partially purified azurocidin in a protease:substrate ratio of 1:3 500 for 2 h at 37 C. The fragments were purified on HPLC. N-, purified fragments with the N-terminal sequence of IGFBP-1, APWQCAP-, c-, small fragment with the sequence STYDGSK-, C-, purified C-terminal fragments with the sequence TNIKKWK-. Samples were separated on 12% SDS-PAGE and visualised by silver staining. Molecular mass markers are indicated by the arrows. B: Summary of sequence analysis of IGFBP-1 fragments after azurocidin-dependent proteolysis. N-terminal sequence analysis was performed on fragments purified by HPLC on 4 separate occasions. C-terminal sequence analysis was perform on one HPLC run. Cleavage sites are indicated by the arrows. a, the primary cleavage site present in 4 runs. b, a secondary cleavage site, present in 3 runs. c, cleavage sites, each identified in only one of the four runs. […]
The primary cleavage site in IGFBP-1 was determined by HPLC-separation of phosphorylated IGFBP-1 after incubation with heparin eluate, and HPLC purification of fragments, followed by N- and C-terminal sequencing. […] N- and C-terminal sequencer degradations were performed on HPLC purified proteins in ABI instruments as described (refs 2 and 3), From this analysis, the quantity of azurocidin quantity in urine was estimated to be 25 pmol/100 ml.

B1: Recombinant human azurocidin^27-250: recombinant azurocidin 27-250 purified from murine myeloma cells, R&D Systems (protein)
chain: IVGGRKARPRQFPFLASIQNQGRHFCGGALIHARFVMTAASCFQSQNPGVSTVVLGAYDLRRRERQSRQTFSISSMSENGYDPQQNLNDLMLLQLDREANLTSSVTILPLPLQNATVEAGTRCQVAGWGSQRSGGRLSRFPRFVNVTVTPEDQCRPNNVCTGVLTRRGGICNGDGGTPLVCEGLAHGVASFSLGPCGRGPDFFTRVALFRDWIDGVLNNPGPGP
B1: the “effect on IGFBP-1 (proteolysis)” value is recorded as “no effect” in data set [1] (data not shown) and “lacked activity” in data set [1] (data not shown, listed as recombinant azurocidin).

B2: partially purified azurocidin: desalted eluate of heparin affinity chromatography of human urine, containing azurocidin, myeloperoxidase and lactoferrin (protein)
chain: IVGGRKARPRQFPFLASIQNQGRHFCGGALIHARFVMTAASCFQSQNPGVSTVVLGAYDLRRRERQSRQTFSISSMSENGYDPQQNLNDLMLLQLDREANLTSSVTILPLPLQNATVEAGTRCQVAGWGSQRSGGRLSRFPRFVNVTVTPEDQCRPNNVCTGVLTRRGGICNGDGGTPLVCEGLAHGVASFSLGPCGRGPDFFTRVALFRDWIDGVLNNPGP
On to B2, for which the “IGFBP-1 proteolytic activity after exposure to 0.1% TFA” value in data set [1] (0.1% TFA in HPLC buffer, lyophilization, reconstitution in assay buffer) is on record as “abolished”. For the same molecule, the IGFBP-1 protease activity entry in data set [1] (after heparin affinity chromatography of urine) is given as “present”. Moreover, the “IGFBP-1 proteolytic activity after reduction with dithiothreitol” value in data set [1] (data not shown) was “loss of activity”. Further, in data set [2] (present in 3 of the HPLC runs), the “secondary cleavage site in IGFBP-1” value is on record as “Val^141-Thr^142”. The “primary cleavage site in IGFBP-1” value in data set [2] (present in all 4 HPLC runs, confirmed by C-terminal sequence analysis) is given as “Ile^130-Ser^131”.
